From paper PMC314469, “Protein Interaction Networks by Proteome Peptide Scanning” (PLoS Biology, 2004)

T1: amphyphisin SH3 (AMPH_HUMAN), P49418
T1 chain: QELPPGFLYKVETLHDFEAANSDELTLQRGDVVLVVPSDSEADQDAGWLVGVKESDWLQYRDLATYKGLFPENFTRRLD


How the values were obtained:
[1] = target: endophilin SH3 (SH3G2_HUMAN), Q99962; assay: SPOT array
[2] = target: T1, amphyphisin SH3 (AMPH_HUMAN), P49418; assay: SPOT array

Binder | normalised SPOT signal, Boehringer light units (BLU); mean over the file's lines of this peptide [1] | normalised SPOT signal, Boehringer light units (BLU); mean over the file's lines of this peptide [2]
ADVDPQRPPRPEVK [Q9ULR6 191-204] | 125 | 2760
DEEKPKRPTRRRRK [O94885 688-701] | 959 | 23100
DEPEPPRPRRGSLR [O43157 1891-1904] | 126 | 3590
DANRLRRPGGSYPA [Q14767 49-62] | 59.6 | 24.8
SRLTLLRPEKDGTA [Q9H7S7 328-341] | 112 | 242
YVDVIKRPLVKNPV [Q9P2Q0 703-716] | 29.7 | 26.4
SVGRPTRPSRGPWR [Q9HBQ8 81-94] | 5870 | 9540
DESSPRRPDYLKGL [Q99698 2220-2233] | 28 | 23.9
DGDPLKRPLLGIVQ [O75060 326-339] | 41.8 | 18.7
ASLPPPRPQRPAET [Q9UFB1 199-212] | 81.6 | 210
STPRPARPPSPTEQ [Q96ML3 75-89] | 9450 | 324
DGEMFMRPGKLFDY [P08574 161-174] | 72.5 | 117
YTVPPARPPPPLTK [O43308 48-62] | 9170 | 211
DEARLRRPPRPSSD [Q9Y2H9 828-841] | 172 | 2750
SVRGPLRPPVRSPA [Q96H54 9-23] | 5540 | 5070
DDSVILRPSKSVKL [Q9Y2R2 666-679] | 167 | 119
SWGGPWRPPPPGFW [Q8TC90 86-100] | 1290 | 43.7
SRNVLRRPFQAQSG [Q12933 37-50] | 112 | 31.6
DDEPPARPPPPPPA [Q9NQC3 135-149] | 54.3 | 37.6
DFYEPRRPEDDDPT [Q96IE0 67-80] | 50.1 | 0
DEVWFKRPDGSKSK [Q9BRI4 246-259] | 60.8 | 30

Binder | normalised SPOT signal, Boehringer light units (BLU); mean over the file's lines of this peptide [1] | normalised SPOT signal, Boehringer light units (BLU); mean over the file's lines of this peptide [2]
DFPKPKKPPPPAKA [Q9Y5K6 333-347] | 8340 | 33
ASLPPPRPQRPVTK [Q9NQE0 197-210] | 5900 | 9900
SSKEFNRPDKLKAH [Q9BYN7 579-592] | 120 | 132
DSSKLRRPLKRNRI [Q9NVG6 7-20] | 167 | 111
YTSKIFRPPRASHS [Q9Y397 160-173] | 325 | 1790
YYLLPERPPYLDKY [Q9UD05 393-407] | 108 | 57.4
YYQIIKRPMDLSII [Q9BQQ4 1075-1088] | 85.7 | 78.4
DDILINRPAKKHLE [Q9H9F8 116-129] | 127 | 7.5
DEGSLRRPGRLTST [Q96ML9 142-155] | 28.2 | 81.1
DAYSFKRPDRSKMN [P13611 342-355] | 45.4 | 543
DELEPRRPRYRVPD [Q14697 104-117] | 26.4 | 35.4
DADPLKRPTFKQIV [P10721 908-921] | 19.8 | 39.9
ADAEPGRPKKRAHS [Q9P2P0 592-605] | 48.3 | 120
DAQEIIRPRRSKYF [Q9HCG2 115-128] | 165 | 723
SRLTLLRPKKDGAA [Q9H7S7 172-185] | 159 | 199
DDLEIVRPARRRTP [Q15598 3286-3299] | 67.6 | 189
STQGLRRPFGVAVM [Q92608 327-340] | 27.2 | 8.9
SSGVPGRPPGLEEE [P49810 64-78] | 57.8 | 50.9
DESRIRRPMNAFMV [P35713 81-94] | 94.4 | 69.5
DEAQLSRPKKSSDR [O60481 257-270] | 76.4 | 51.5
SRLTLLRPEKDGAA [Q9H7S7 16-29] | 71.4 | 297
